Data taken from patent US20250059285A1.

Target: human Gal10-His (human) (UniProt Q05315)
Test: competition ELISA on coated Gal10-His; negative control, competitor g7B07-hFab-Biot; set as 0%

Sequence of human Gal10-His (human) (Q05315 2-142 limits assumed): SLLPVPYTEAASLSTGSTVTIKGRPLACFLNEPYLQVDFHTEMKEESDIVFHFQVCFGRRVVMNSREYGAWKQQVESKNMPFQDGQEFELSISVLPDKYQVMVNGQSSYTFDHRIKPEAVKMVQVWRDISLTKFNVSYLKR

% Competition against g7B07-Biot: 0% | Mean OD value: 2.51 OD
Substance: Motavizumab in a human Fab backbone
